# Results reported in US20140302027A1, “METHODS OF TREATING PERIODONTAL INFLAMMATION AND PERIODONTAL BONE LOSS” (United States of America as Represented by the Secretary, …, priority 2011, published 2014).
# “Also recorded” adds a separate entry of the source.
# Assays:
# WT neutrophils = experiment: Cytokine/chemokine release by isolated neutrophils stimulated with LPS plus C5a; format: cell-based, mouse; details: soluble Del-1 10 μg/ml, LPS (100 ng/ml) plus C5a (10 nM), 4 h
# Method: FIG. 27. Effects of Del-1 deficiency or Del-1 on neutrophil function. (a) Migration of neutrophils isolated from wild-type (WT) or Edil3^−/− mice was tested in a transwell system. Chemokinesis (in the absence of a chemokine in the bottom well) or chemotaxis to CXCL2 (10 ng/ml) in the bottom well was assessed after 60 min. The migration of WT neutrophils in the absence of chemokine was set as the 100% control (dashed line) and the data were expressed relative to this value. (b) Neutrophils isolated from WT or Edil3^−/− mice were stimulated or not for 4 h with LPS (100 ng/ml) plus C5a (10 nM) and release of the indicated cytokines or chemokines in the culture supernatants was determined by ELISA. (c) WT neutrophils, in the presence or absence of soluble Del-1 (10 μg/ml), were stimulated as above and assayed for release of the indicated cytokines or chemokines. Data are means±SD (n=3 sets of neutrophils), from one of two independent sets of experiments yielding similar results.
# Mouse neutrophils were obtained by harvesting the bone marrow (Ley (2007)). Briefly, bone marrow cells, obtained after flushing tibias and femurs with RPMI 1640 containing 10% FBS, were depleted of tissue debris and erythrocytes and were resuspended in 45% Percoll. […] Neutrophil purity was routinely >95%, as determined by FACS after staining for Ly6G, F4/80, and CD3.
# mouse neutrophils = details: cited from earlier work
# LFA-1 = target: T1, LFA-1 (Mus musculus, UniProt P24063); details: at equimolar amounts; cited from earlier work
# T1 construct: host or cells: leukocytes (endogenous LFA-1)
# [1] = test system: inflammatory mediators in the gingiva of aged mice; experiment: qPCR of gingival mRNA in aged mice after local administration of soluble Del-1; format: in vivo, C57BL/6 mice; details: 12 h
# Method: (§1) Ten 18-month-old C57BL/6 mice were microinjected in the gingiva with soluble recombinant mouse Del-1 (kindly provided by Valentis, Inc.)^4 and another ten mice with BSA control. Specifically, Del-1 or BSA (1 μg in 1-μl volume) were microinjected through a 28.5-gauge MicroFine needle (BD) into the palatal gingiva between the first and the second molar teeth, on both sides of the maxilla. Half of the Del-1 or BSAtreated mice were additionally orally inoculated with P. gingivalis ATCC 33277 (10^9 CFU) in 2% carboxymethylcellulose vehicle and the other half were orally given vehicle alone. All mice were sacrificed 12 h later. Maxillae were harvested and one side was stored in 4% paraformaldehyde for immunohistochemistry (see below), while the other side was used to dissect interdental gingiva which were placed into RNAlater solution (Ambion) for qPCR (see below). To determine whether IL-17 regulates Del-1 expression, a neutralizing anti-IL-17A mAb (clone M210, rat IgG2a; kindly provided by Amgen) was microinjected into the palatal gingiva (1 μg) as described above. Purified azide-free rat IgG2a (Biolegend) served as control. qPCR was used to determine […] in dissected gingiva.
# Total RNA was extracted from excised gingival tissue or cultured cells using the PerfectPure RNA cell kit (5 Prime, Fisher) and quantified by spectrometry at 260 and 280 nm. The RNA was reverse-transcribed using the High-Capacity cDNA Archive kit (Applied Biosystems) and qPCR with cDNA was performed using the ABI 7500 Fast System, according to the manufacturer's protocol (Applied Biosystems). TaqMan probes, sense primers, and antisense primers for qPCR of genes investigated in this paper were purchased from Applied Biosystems.
# [2] = test system: periodontal inflammation in old mice; experiment: Immunohistochemistry of interdental gingiva of old mice microinjected with Del-1 or BSA; format: in vivo, C57BL/6 mice
# Method: FIG. 24. Del-1 inhibits IL-17 and periodontal inflammation in old mice. Eighteen-month-old C57BL/6 mice were microinjected in the gingiva with BSA (control) or Del-1, as indicated. In addition, the mice were orally administered P. gingivalis in 2% carboxymethylcellulose vehicle (a, b, c; lower rows) or vehicle control (a, b, c; upper rows) and were sacrificed 12 h later. Sagittal sections of interdental gingiva were stained for the neutrophil marker Ly6G (a), IL-17A (b), or TNF (c). Shown are typical fluorescent confocal images (left) and their overlays with corresponding DIC images (right). (d) The fluorescence intensities of these and additional representative images from independent mice were quantified using ImageJ analysis; data were expressed as % intensity of the Del-1-treated groups relative to the BSA-treated controls, the value of which was set to 100% (dashed line). ‘Induced inflammation’ refers to the groups inoculated with P. gingivalis. Data are means±SD (n=5 mice per group) from one of two independent experiments yielding similar results. **P<0.01 compared to BSA-treated controls.
# as §1
# Maxillae with intact surrounding tissue were fixed in 4% paraformaldehyde, decalcified in Immunocal solution (Decal) for 15 days, and embedded in OCT compound. Serial mesio-distal sections (7- to 8-μm thick) parallel to the long axis of the teeth (sagittal) were stained with monoclonal antibodies to mouse Ly6G (RB6-8C5, FITC-conjugate; LifeSpan BioSciences), mouse CD4 (GK1.5, FITC- or PE-conjugate; LifeSpan), mouse γδ T-cell receptor (GL3, FITC-conjugate; LifeSpan Biosciences) or with polyclonal antibodies to human/mouse Del-1 (ProteinTech), human/mouse IL-17A (Santa Cruz Biotech), human/mouse TNF (Abcam), human/mouse RANKL (Santa Cruz), and mouse CD31 (LifeSpan). Where necessary, staining involved the use of a secondary reagent (AlexaFluor594-conjugated goat anti-rabbit IgG; Molecular Probes). The specificity of staining was confirmed by using appropriate FITC-conjugated isotype controls or normal rabbit IgG followed by AlexaFluor594-goat anti-rabbit IgG. Images were captured using a laser-scanning confocal microscope (Olympus FV1000). Fluorescence intensity was quantified using the Image J software (NIH; http://rsb.info.nih.gov/ij).
# [3] = 18-month-old mice, local gingival microinjection 1 μg, compared to BSA control
# T1 sequence (P24063 24-1162): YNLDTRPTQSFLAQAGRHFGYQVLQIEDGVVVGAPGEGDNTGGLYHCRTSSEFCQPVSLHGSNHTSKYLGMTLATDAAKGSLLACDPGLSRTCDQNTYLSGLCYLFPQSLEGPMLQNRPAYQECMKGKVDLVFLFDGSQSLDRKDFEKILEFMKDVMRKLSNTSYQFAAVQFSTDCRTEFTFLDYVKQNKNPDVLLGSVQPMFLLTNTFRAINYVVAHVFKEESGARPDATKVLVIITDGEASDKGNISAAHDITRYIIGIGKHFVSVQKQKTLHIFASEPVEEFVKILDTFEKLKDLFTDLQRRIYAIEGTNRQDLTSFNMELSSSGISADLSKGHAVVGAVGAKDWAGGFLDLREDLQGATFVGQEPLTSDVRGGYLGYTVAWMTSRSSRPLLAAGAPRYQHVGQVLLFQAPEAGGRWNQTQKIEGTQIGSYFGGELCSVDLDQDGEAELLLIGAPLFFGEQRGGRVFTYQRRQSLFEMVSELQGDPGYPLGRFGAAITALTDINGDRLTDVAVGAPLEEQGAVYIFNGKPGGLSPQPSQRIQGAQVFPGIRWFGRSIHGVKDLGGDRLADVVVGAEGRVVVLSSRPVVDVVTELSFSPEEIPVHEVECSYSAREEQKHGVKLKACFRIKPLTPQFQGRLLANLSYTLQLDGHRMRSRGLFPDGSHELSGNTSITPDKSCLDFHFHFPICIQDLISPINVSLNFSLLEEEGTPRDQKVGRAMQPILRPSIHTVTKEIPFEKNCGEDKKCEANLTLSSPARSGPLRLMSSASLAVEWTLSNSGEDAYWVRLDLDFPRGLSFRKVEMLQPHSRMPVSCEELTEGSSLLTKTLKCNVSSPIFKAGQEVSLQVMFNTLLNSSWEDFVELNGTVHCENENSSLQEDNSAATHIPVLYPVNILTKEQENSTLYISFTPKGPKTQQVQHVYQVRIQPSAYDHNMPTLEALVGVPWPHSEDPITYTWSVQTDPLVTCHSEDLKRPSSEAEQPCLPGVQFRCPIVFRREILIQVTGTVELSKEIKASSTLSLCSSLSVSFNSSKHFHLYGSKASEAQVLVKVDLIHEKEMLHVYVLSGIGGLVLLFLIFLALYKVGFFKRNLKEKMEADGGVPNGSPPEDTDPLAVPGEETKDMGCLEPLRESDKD
# T1 sequence (P11835 24-771 partner): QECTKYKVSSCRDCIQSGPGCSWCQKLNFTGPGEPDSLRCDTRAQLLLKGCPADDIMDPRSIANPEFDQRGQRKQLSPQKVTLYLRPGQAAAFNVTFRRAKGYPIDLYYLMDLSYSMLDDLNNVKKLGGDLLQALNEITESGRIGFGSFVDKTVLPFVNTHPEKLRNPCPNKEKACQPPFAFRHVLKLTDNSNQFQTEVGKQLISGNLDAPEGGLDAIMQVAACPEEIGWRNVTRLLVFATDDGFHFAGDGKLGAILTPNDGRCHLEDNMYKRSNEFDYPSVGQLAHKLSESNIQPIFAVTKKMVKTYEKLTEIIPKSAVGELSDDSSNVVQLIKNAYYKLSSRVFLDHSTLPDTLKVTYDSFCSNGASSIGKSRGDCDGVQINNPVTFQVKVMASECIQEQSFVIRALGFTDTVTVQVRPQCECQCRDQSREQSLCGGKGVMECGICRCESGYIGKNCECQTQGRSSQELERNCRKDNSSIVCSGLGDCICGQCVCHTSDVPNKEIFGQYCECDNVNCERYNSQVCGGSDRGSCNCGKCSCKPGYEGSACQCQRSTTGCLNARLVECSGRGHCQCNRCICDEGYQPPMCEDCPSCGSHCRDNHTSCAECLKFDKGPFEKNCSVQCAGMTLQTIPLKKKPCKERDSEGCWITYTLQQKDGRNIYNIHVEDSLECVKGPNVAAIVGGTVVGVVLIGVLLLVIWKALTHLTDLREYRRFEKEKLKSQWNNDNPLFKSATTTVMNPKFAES
molecule,measurement,setting,value
"Del-1: soluble recombinant mouse Del-1 (provided by Valentis, Inc.); endothelial cell-expressed 52-kDa glycoprotein (protein) DICDPNPCENGGICLPGLADGSFSCECPDGFTDPNCSSVVEVASDEEEPTSAGPCTPNPCHNGGTCEISEAYRGDTFIGYVCKCPRGFNGIHCQHNINECEVEPCKNGGICTDLVANYSCECPGEFMGRNCQYKCSGPLGIEGGIISNQQITASSTHRALFGLQKWYPYYARLNKKGLINAWTAAENDRWPWIQINLQRKMRVTGVITQGAKRIGSPEYIKSYKIAYSNDGKTWAMYKVKGTNEDMVFRGNIDNNTPYANSFTPPIKAQYVRLYPQVCRRHCTLRMELLGCELSGCSEPLGMKSGHIQDYQITASSIFRTLNMDMFTWEPRKARLDKQGKVNAWTSGHNDQSQWLQVDLLVPTKVTGIITQGAKDFGHVQFVGSYKLAYSNDGEHWTVYQDEKQRKDKVFQGNFDNDTHRKNVIDPPIYARHIRILPWSWYGRITLRSELLGCTEEE","cytokine and chemokine induction (TNF, CXCL1 release) by neutrophils",WT neutrophils,did not exert a direct effect; also recorded: No significant differences
same,LFA-1-dependent adhesion of mouse neutrophils to mouse endothelial cells,mouse neutrophils,competitively inhibits
same,competition with ICAM-1 for binding to LFA-1 on leukocytes,LFA-1,outcompetes ICAM-1
same,"C3aR mRNA, Fold change vs. Del-1-untreated controls",[1]; CMC only,0.49 Fold change
same,"C5aR mRNA, Fold change vs. Del-1-untreated controls",[1]; CMC only,0.50 Fold change
same,"CCL2 mRNA, Fold change vs. Del-1-untreated controls",[1]; CMC only,0.48 Fold change
same,"CCL3 mRNA, Fold change vs. Del-1-untreated controls",[1]; CMC only,1.02 Fold change
same,"CCL20 mRNA, Fold change vs. Del-1-untreated controls",[1]; CMC only,0.24 Fold change
same,"CCR2 mRNA, Fold change vs. Del-1-untreated controls",[1]; CMC only,0.26 Fold change
same,"CCR6 mRNA, Fold change vs. Del-1-untreated controls",[1]; CMC only,0.25 Fold change
same,"CD40 mRNA, Fold change vs. Del-1-untreated controls",[1]; CMC only,0.24 Fold change
same,"CD80 mRNA, Fold change vs. Del-1-untreated controls",[1]; CMC only,0.25 Fold change
same,"CD86 mRNA, Fold change vs. Del-1-untreated controls",[1]; CMC only,0.50 Fold change
same,"CXCL10 mRNA, Fold change vs. Del-1-untreated controls",[1]; CMC only,0.25 Fold change
same,"CXCR4 mRNA, Fold change vs. Del-1-untreated controls",[1]; CMC only,0.50 Fold change
same,"G-CSF mRNA, Fold change vs. Del-1-untreated controls",[1]; CMC only,0.12 Fold change
same,"IL-1 mRNA, Fold change vs. Del-1-untreated controls",[1]; CMC only,0.50 Fold change
same,"IL-6 mRNA, Fold change vs. Del-1-untreated controls",[1]; CMC only,0.25 Fold change
same,"IL-17 mRNA, Fold change vs. Del-1-untreated controls",[1]; CMC only,0.19 Fold change
same,"RANKL mRNA, Fold change vs. Del-1-untreated controls",[1]; CMC only,0.49 Fold change
same,"TLR1 mRNA, Fold change vs. Del-1-untreated controls",[1]; CMC only,0.24 Fold change
same,"TLR2 mRNA, Fold change vs. Del-1-untreated controls",[1]; CMC only,0.26 Fold change
same,"TLR4 mRNA, Fold change vs. Del-1-untreated controls",[1]; CMC only,0.25 Fold change
same,"TLR5 mRNA, Fold change vs. Del-1-untreated controls",[1]; CMC only,0.51 Fold change
same,"TLR6 mRNA, Fold change vs. Del-1-untreated controls",[1]; CMC only,0.27 Fold change
same,"TLR9 mRNA, Fold change vs. Del-1-untreated controls",[1]; CMC only,0.25 Fold change
same,"TNF mRNA, Fold change vs. Del-1-untreated controls",[1]; CMC only,0.50 Fold change
same,"TREM-1 mRNA, Fold change vs. Del-1-untreated controls",[1]; CMC only,0.49 Fold change
same,"C3aR mRNA, Fold change vs. Del-1-untreated controls",[1]; Pg (P. gingivalis inoculated),0.49 Fold change
same,"C5aR mRNA, Fold change vs. Del-1-untreated controls",[1]; Pg (P. gingivalis inoculated),0.25 Fold change
same,"CCL2 mRNA, Fold change vs. Del-1-untreated controls",[1]; Pg (P. gingivalis inoculated),0.49 Fold change
same,"CCL3 mRNA, Fold change vs. Del-1-untreated controls",[1]; Pg (P. gingivalis inoculated),0.51 Fold change
same,"CCL20 mRNA, Fold change vs. Del-1-untreated controls",[1]; Pg (P. gingivalis inoculated),0.49 Fold change
same,"CCR2 mRNA, Fold change vs. Del-1-untreated controls",[1]; Pg (P. gingivalis inoculated),0.12 Fold change
same,"CCR6 mRNA, Fold change vs. Del-1-untreated controls",[1]; Pg (P. gingivalis inoculated),0.13 Fold change
same,"CD40 mRNA, Fold change vs. Del-1-untreated controls",[1]; Pg (P. gingivalis inoculated),0.25 Fold change
same,"CD80 mRNA, Fold change vs. Del-1-untreated controls",[1]; Pg (P. gingivalis inoculated),0.25 Fold change
same,"CD86 mRNA, Fold change vs. Del-1-untreated controls",[1]; Pg (P. gingivalis inoculated),0.49 Fold change
same,"CXCL10 mRNA, Fold change vs. Del-1-untreated controls",[1]; Pg (P. gingivalis inoculated),0.26 Fold change
same,"CXCR4 mRNA, Fold change vs. Del-1-untreated controls",[1]; Pg (P. gingivalis inoculated),0.24 Fold change
same,"G-CSF mRNA, Fold change vs. Del-1-untreated controls",[1]; Pg (P. gingivalis inoculated),0.25 Fold change
same,"IL-1 mRNA, Fold change vs. Del-1-untreated controls",[1]; Pg (P. gingivalis inoculated),0.25 Fold change
same,"IL-6 mRNA, Fold change vs. Del-1-untreated controls",[1]; Pg (P. gingivalis inoculated),0.24 Fold change
same,"IL-17 mRNA, Fold change vs. Del-1-untreated controls",[1]; Pg (P. gingivalis inoculated),0.25 Fold change
same,"RANKL mRNA, Fold change vs. Del-1-untreated controls",[1]; Pg (P. gingivalis inoculated),0.25 Fold change
same,"TLR1 mRNA, Fold change vs. Del-1-untreated controls",[1]; Pg (P. gingivalis inoculated),0.24 Fold change
same,"TLR2 mRNA, Fold change vs. Del-1-untreated controls",[1]; Pg (P. gingivalis inoculated),0.25 Fold change
same,"TLR4 mRNA, Fold change vs. Del-1-untreated controls",[1]; Pg (P. gingivalis inoculated),0.12 Fold change
same,"TLR5 mRNA, Fold change vs. Del-1-untreated controls",[1]; Pg (P. gingivalis inoculated),0.51 Fold change
same,"TLR6 mRNA, Fold change vs. Del-1-untreated controls",[1]; Pg (P. gingivalis inoculated),0.26 Fold change
same,"TLR9 mRNA, Fold change vs. Del-1-untreated controls",[1]; Pg (P. gingivalis inoculated),0.51 Fold change
same,"TNF mRNA, Fold change vs. Del-1-untreated controls",[1]; Pg (P. gingivalis inoculated),0.51 Fold change
same,"TREM-1 mRNA, Fold change vs. Del-1-untreated controls",[1]; Pg (P. gingivalis inoculated),0.24 Fold change
same,expression of IL-17 in the periodontium,[2]; [3],diminished
same,expression of TNF in the periodontium,[2]; [3],diminished
same,neutrophil infiltration in the periodontium (Ly6G staining),[2]; [3],reduced
same,inflammation induced by oral inoculation with Porphyromonas gingivalis,"[2]; old mice, P. gingivalis inoculated",suppressed
same,constitutive (naturally occurring) inflammation,"[2]; old mice, vehicle only",suppressed
